Assay results: the Immune Epitope Database (IEDB)

Columns and labels:
Assay in all cases: IEDB peptide-MHC binding, purified MHC/competitive/radioactivity; filed as Kd, often an IC50 or EC50 that approximates it; ≥ and ≤ were set here for values at or beyond the usual limits of such assays
[1] = biological target: HLA-A*03:01
[2] = biological target: HLA-A*68:01
[3] = biological target: HLA-A*11:01
[4] = biological target: HLA-A*31:01
[5] = biological target: HLA-A*33:01
[6] = source organism: SARS coronavirus Tor2
[7] = source organism: Vaccinia virus WR
[8] = source organism: Dengue virus 2 Jamaica/1409/1983
[9] = source organism: Mammarenavirus juninense
[10] = source organism: Mammarenavirus machupoense
[11] = source organism: Dengue virus 3 Martinique/1243/1999
[12] = source organism: Vaccinia virus Copenhagen
[13] = source organism: Dengue virus 3 Sri Lanka/1266/2000
[14] = source organism: Lassa virus Josiah
[15] = source organism: Mammarenavirus brazilense

Question: For IINNAVYTK, which Kd [1, 6] is on record?
Answer: 37.5 nM

Question: What about the Kd [2, 6] of the same sequence?
Answer: 484 nM

Question: What about the Kd [3, 6] of the same sequence?
Answer: 17.1 nM

Question: And the Kd [4, 6]?
Answer: 114 nM

Question: And the Kd [5, 6]?
Answer: 19500 nM

Question: With AFDAPTLYVK as the sequence, how does the Kd [1, 7] read?
Answer: 2280 nM

Question: What about the Kd [2, 7] of the same sequence?
Answer: 134 nM

Question: What about the Kd [3, 7] of the same sequence?
Answer: 271 nM

Question: What about the Kd [4, 7] of the same sequence?
Answer: 3840 nM

Question: What about the Kd [5, 7] of the same sequence?
Answer: ≥ 56000 nM

Question: Which Kd [5, 8] does the source give for FFLIVLLIPE here?
Answer: 327 nM

Question: Which Kd [4, 8] does the source give for YQNKVVRVQR here?
Answer: ≥ 36700 nM

Question: What does the source list for VSILASSLLK?
Answer: Kd [1, 8]: 9 nM; Kd [3, 8]: 26.2 nM

Question: Which Kd [1, 9] does the source give for GKQYIHCFRK here?
Answer: 2210 nM

Question: And the Kd [2, 9]?
Answer: 1730 nM

Question: And the Kd [3, 9]?
Answer: 1510 nM

Question: And the Kd [4, 9]?
Answer: 3670 nM

Question: What about the Kd [5, 9] of the same sequence?
Answer: ≥ 29500 nM

Question: Which results are given for EIINFTISMR?
Answer: Kd [1, 7]: 1610 nM; Kd [2, 7]: 1.12 nM; Kd [3, 7]: 2020 nM; Kd [4, 7]: 428 nM; Kd [5, 7]: 7.83 nM

Question: With SACANGWIQY as the sequence, how does the Kd [1, 7] read?
Answer: 1200 nM

Question: What about the Kd [2, 7] of the same sequence?
Answer: 2890 nM

Question: And the Kd [3, 7]?
Answer: 59 nM

Question: And the Kd [4, 7]?
Answer: ≥ 55000 nM

Question: What about the Kd [5, 7] of the same sequence?
Answer: ≥ 40500 nM

Question: How did the Kd [1, 7] turn out when TIREFPRKDK was run?
Answer: 13100 nM

Question: What about the Kd [2, 7] of the same sequence?
Answer: 7280 nM

Question: And the Kd [3, 7]?
Answer: 16200 nM

Question: What about the Kd [4, 7] of the same sequence?
Answer: 295 nM

Question: And the Kd [5, 7]?
Answer: ≥ 40900 nM

Question: With KSIQKNTIFK as the sequence, how does the Kd [3, 10] read?
Answer: 5.35 nM

Question: Which Kd [3, 11] does the source give for TTKRDLGMSK here?
Answer: 115 nM

Question: VQSKMSDVK was tested. Which Kd [1, 6] did it give?
Answer: 4160 nM

Question: And the Kd [2, 6]?
Answer: ≥ 53500 nM

Question: And the Kd [3, 6]?
Answer: 198 nM

Question: What about the Kd [4, 6] of the same sequence?
Answer: 7070 nM

Question: And the Kd [5, 6]?
Answer: ≥ 25000 nM

Question: For NVQFVDINR, which Kd [1, 7] is on record?
Answer: ≥ 23000 nM

Question: And the Kd [2, 7]?
Answer: 0.399 nM

Question: And the Kd [3, 7]?
Answer: 193 nM

Question: And the Kd [4, 7]?
Answer: 38.1 nM

Question: What about the Kd [5, 7] of the same sequence?
Answer: 12.7 nM

Question: Which results are given for KQMYRKFSR?
Answer: Kd [1, 12]: 209 nM; Kd [2, 12]: 1210 nM; Kd [3, 12]: 78.8 nM; Kd [4, 12]: 4.97 nM; Kd [5, 12]: 2130 nM

Question: What does the source list for IMSMMNITR?
Answer: Kd [1, 7]: 870 nM; Kd [2, 7]: 29.9 nM; Kd [3, 7]: 61.2 nM; Kd [4, 7]: 517 nM; Kd [5, 7]: 4.04 nM

Question: How did the Kd [1, 6] turn out when GTSWFITQR was run?
Answer: 318 nM

Question: What about the Kd [2, 6] of the same sequence?
Answer: 13 nM

Question: What about the Kd [3, 6] of the same sequence?
Answer: 6.53 nM

Question: And the Kd [4, 6]?
Answer: 8.28 nM

Question: What about the Kd [5, 6] of the same sequence?
Answer: 1240 nM

Question: How did the Kd ([3]; source organism: Homo sapiens) turn out when ASNAPSAAK was run?
Answer: 14 nM

Question: VLFSIFYKDY was tested. Which Kd [1, 7] did it give?
Answer: 668 nM

Question: What about the Kd [2, 7] of the same sequence?
Answer: 1160 nM

Question: And the Kd [3, 7]?
Answer: 972 nM

Question: What about the Kd [4, 7] of the same sequence?
Answer: 1200 nM

Question: And the Kd [5, 7]?
Answer: 3090 nM

Question: For ETTHHAVSR, which Kd [2, 13] is on record?
Answer: 19 nM

Question: What about the Kd [5, 13] of the same sequence?
Answer: 4.66 nM

Question: DMSHLKVALY was tested. Which Kd [1, 7] did it give?
Answer: 1810 nM

Question: And the Kd [2, 7]?
Answer: 854 nM

Question: And the Kd [3, 7]?
Answer: 3950 nM

Question: And the Kd [4, 7]?
Answer: 768 nM

Question: And the Kd [5, 7]?
Answer: 14700 nM

Question: How did the Kd [1, 7] turn out when TTYMDTFFR was run?
Answer: 10.4 nM

Question: And the Kd [2, 7]?
Answer: 0.0507 nM

Question: What about the Kd [3, 7] of the same sequence?
Answer: 1.98 nM

Question: What about the Kd [4, 7] of the same sequence?
Answer: 16.6 nM

Question: What about the Kd [5, 7] of the same sequence?
Answer: 10.6 nM

Question: For KTWMDIEGR, which Kd [1, 14] is on record?
Answer: 8460 nM

Question: And the Kd [2, 14]?
Answer: 1820 nM

Question: And the Kd [3, 14]?
Answer: 1130 nM

Question: What about the Kd [4, 14] of the same sequence?
Answer: 120 nM

Question: And the Kd [5, 14]?
Answer: 1710 nM

Question: How did the Kd [1, 6] turn out when TLAILTALR was run?
Answer: 3670 nM

Question: What about the Kd [2, 6] of the same sequence?
Answer: 117 nM

Question: And the Kd [3, 6]?
Answer: 4460 nM

Question: And the Kd [4, 6]?
Answer: 326 nM

Question: What about the Kd [5, 6] of the same sequence?
Answer: 833 nM

Question: For VTYTEIEPK, which Kd [1, 6] is on record?
Answer: 31.2 nM

Question: What about the Kd [2, 6] of the same sequence?
Answer: 147 nM

Question: What about the Kd [3, 6] of the same sequence?
Answer: 7.49 nM

Question: What about the Kd [4, 6] of the same sequence?
Answer: 1360 nM

Question: What about the Kd [5, 6] of the same sequence?
Answer: ≥ 25700 nM

Question: Which Kd ([5]; source organism: Dengue virus 1 Brazil/97-11/1997) does the source give for WYFWQKKKQR here?
Answer: 8.19 nM

Question: How did the Kd [1, 14] turn out when ALMSIISTFH was run?
Answer: 617 nM

Question: What about the Kd [5, 14] of the same sequence?
Answer: 3610 nM

Question: Which Kd [1, 6] does the source give for TQVYIAVNDK here?
Answer: 186 nM

Question: And the Kd [2, 6]?
Answer: 1330 nM

Question: And the Kd [3, 6]?
Answer: 720 nM

Question: What about the Kd [4, 6] of the same sequence?
Answer: 6720 nM

Question: What about the Kd [5, 6] of the same sequence?
Answer: 9360 nM

Question: What does the source list for YSISNDLLY?
Answer: Kd [1, 7]: 1190 nM; Kd [2, 7]: 2310 nM; Kd [3, 7]: 337 nM; Kd [4, 7]: 249 nM; Kd [5, 7]: ≥ 65500 nM

Question: KLDNHDILTY was tested. Which Kd [1, 7] did it give?
Answer: 104 nM

Question: What about the Kd [2, 7] of the same sequence?
Answer: 16400 nM

Question: And the Kd [3, 7]?
Answer: 602 nM

Question: What about the Kd [4, 7] of the same sequence?
Answer: 9280 nM

Question: And the Kd [5, 7]?
Answer: ≥ 70000 nM

Question: With SSFDYCSTNH as the sequence, how does the Kd [1, 10] read?
Answer: 17100 nM

Question: What about the Kd [2, 10] of the same sequence?
Answer: 249 nM

Question: And the Kd [3, 10]?
Answer: 1890 nM

Question: And the Kd [4, 10]?
Answer: 6320 nM

Question: What about the Kd [5, 10] of the same sequence?
Answer: 15600 nM

Question: Which results are given for YVNHTASGEH?
Answer: Kd [1, 15]: ≥ 70000 nM; Kd [2, 15]: ≥ 21700 nM; Kd [3, 15]: ≥ 69700 nM; Kd [4, 15]: ≥ 70000 nM; Kd [5, 15]: ≥ 69000 nM

Question: Which results are given for ASGQRCHFIK?
Answer: Kd [1, 7]: 927 nM; Kd [2, 7]: 5130 nM; Kd [3, 7]: 12.5 nM; Kd [4, 7]: 1470 nM; Kd [5, 7]: ≥ 63300 nM

Question: How did the Kd [1, 11] turn out when GIALGLMALK was run?
Answer: 219 nM

Question: VSTVSQLAK was tested. Which Kd ([3]; source organism: Dengue virus 1 Nauru/West Pac/1974) did it give?
Answer: 248 nM

Question: With YVEKEENMDK as the sequence, how does the Kd [1, 7] read?
Answer: ≥ 70100 nM

Question: What about the Kd [2, 7] of the same sequence?
Answer: 3370 nM

Question: What about the Kd [3, 7] of the same sequence?
Answer: 2170 nM

Question: What about the Kd [4, 7] of the same sequence?
Answer: 1270 nM

Question: What about the Kd [5, 7] of the same sequence?
Answer: ≥ 69100 nM

Question: For TFQLLNMIK, which Kd [1, 7] is on record?
Answer: 20.8 nM

Question: What about the Kd [2, 7] of the same sequence?
Answer: 11.5 nM

Question: What about the Kd [3, 7] of the same sequence?
Answer: 19.5 nM

Question: And the Kd [4, 7]?
Answer: 326 nM

Question: And the Kd [5, 7]?
Answer: 102 nM

Question: Which results are given for SFNHVLKRK?
Answer: Kd [1, 6]: 111 nM; Kd [2, 6]: ≥ 24700 nM; Kd [3, 6]: 1790 nM; Kd [4, 6]: 375 nM; Kd [5, 6]: 6790 nM

Question: Which Kd [1, 6] does the source give for TLEEAKTALK here?
Answer: 1350 nM

Question: What about the Kd [2, 6] of the same sequence?
Answer: ≥ 10000 nM

Question: And the Kd [3, 6]?
Answer: 4630 nM

Question: And the Kd [4, 6]?
Answer: ≥ 47600 nM

Question: What about the Kd [5, 6] of the same sequence?
Answer: ≥ 70000 nM

Question: Which results are given for VLARWGTFK?
Answer: Kd [1, 11]: 3.08 nM; Kd [3, 11]: 52.3 nM

Question: Which Kd ([1]; source organism: Homo sapiens) does the source give for EINKNPKYK here?
Answer: 753 nM

Question: For VQIGEYTFEK, which Kd [1, 6] is on record?
Answer: 221 nM

Question: What about the Kd [2, 6] of the same sequence?
Answer: 350 nM

Question: What about the Kd [3, 6] of the same sequence?
Answer: 22 nM

Question: What about the Kd [4, 6] of the same sequence?
Answer: 1660 nM

Question: What about the Kd [5, 6] of the same sequence?
Answer: 11200 nM

Question: For YLRLYIILAR, which Kd [1, 7] is on record?
Answer: 160 nM

Question: And the Kd [2, 7]?
Answer: 14.8 nM

Question: And the Kd [3, 7]?
Answer: 1470 nM

Question: And the Kd [4, 7]?
Answer: 12.7 nM

Question: And the Kd [5, 7]?
Answer: 117 nM
